Test [1] deals with T1, ALCAM/MEMD/CD166 (UniProt Q13740 28-583, limits assumed).
T1 construct: whole, on cells; On Du-145 prostate cancer cells for FACS, and from lysates of surface-biotinylated Du-145 cells for IP/Western; Glycosylated, with a band of about 105 kDa; Du-145 is a human prostate cancer line
T1 sequence (looked up): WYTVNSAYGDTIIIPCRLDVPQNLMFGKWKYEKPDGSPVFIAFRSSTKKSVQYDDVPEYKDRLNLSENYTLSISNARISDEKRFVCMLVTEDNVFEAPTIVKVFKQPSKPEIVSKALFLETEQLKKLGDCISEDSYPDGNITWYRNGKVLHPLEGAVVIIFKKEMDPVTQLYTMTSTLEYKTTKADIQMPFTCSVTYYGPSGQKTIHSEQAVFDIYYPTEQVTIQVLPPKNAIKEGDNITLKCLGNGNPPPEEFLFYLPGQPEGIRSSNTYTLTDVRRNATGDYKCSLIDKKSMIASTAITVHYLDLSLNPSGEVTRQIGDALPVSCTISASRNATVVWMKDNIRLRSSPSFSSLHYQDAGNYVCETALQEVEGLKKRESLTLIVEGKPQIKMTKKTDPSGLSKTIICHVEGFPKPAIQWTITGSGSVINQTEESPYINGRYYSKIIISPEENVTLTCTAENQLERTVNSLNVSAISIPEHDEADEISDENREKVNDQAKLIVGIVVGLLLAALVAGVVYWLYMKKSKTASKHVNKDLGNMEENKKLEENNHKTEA
As to the kind of experiment: apparent KD by FACS on Du-145 cells, IgG1 incubated at 4° C. overnight, curve fitting of MFI. On the procedure: Monodispersed DU-145 cells were incubated with varying concentrations of IgG1s at 4° C. overnight to allow equilibrium binding. After washing, bound human IgG1s were detected by R-phycoerythrin-conjugated goat anti-human secondary antibody and analyzed by FACS. Mean fluorescence intensity (MFI) values were plotted and the KD was determined by curve fitting using GraphPad (GraphPad Software, San Diego, Calif.).

Test [2] concerns the target T1, ALCAM/MEMD/CD166. The test can be described thus: caption of the IHC table. The source says: Phage antibodies selected by LCM were expected to bind to clinically relevant antigens on cancer cells in situ. We performed immunohistochemical studies using soluble scFv fragments derived from LCM-selected phage antibody on prostate cancer tissue sections. […] The 585II41 scFv also stained tumor cells intensely on frozen tissue slides (FIG. 4, panel B). Some basal cells in normal epithelium adjacent to tumor were also stained with reduced intensity (Table 5). […] These experiments indicate that antibodies obtained from LCM selection bind to antigens that exist in patient specimens and thus are clinically relevant to human prostate cancer. The corresponding antigens are likely targets for therapeutic intervention.
TABLE 5 Immunohistochemistry (IHC) results of the 585II41 and UA20 scFv fragments on a panel of frozen CaP and normal tissues. The numbers of cases studied are indicated. Biotinylated scFv fragments were first tested on cell lines to ensure binding activity and then used for IHC studies. As a control, a random scFv with no binding activity to cell lines was used to register the background level of staining. No change, no change in staining level was observed when compared with the result of the control scFv

Test [3] concerns the target T1, ALCAM/MEMD/CD166. As to the kind of experiment: FACS competition on Du-145 cells against 585II41 scFv.

Numbering of substitutions follows the chain as printed.

B1: anti-ALCAM IgG1 (585II41.1, also known as H3) (antibody, V domains shown)
VH: QVQLVESGGGLVQPGGSLRLSCAASGFTFSSYAMSWVRQAPGKGLEWVSAISGSGGSTYYADSVKGRFTISRDNSKDTLYLQMNSLRAEDTAVYYCASRSLLDYWGQGTLVTVSS
VL: NFMLTQDPAVSVALGQTVRITCQGDSLRSYYASWYQQKPGQAPLLVIYGKNNRPSGIPDRFSGSSSGNTASLTITGAQAEDEADYYCNSRDSSGNPVFGGGTKVTVL
notes: Human IgG1 (detected with anti-human secondary antibody); also called H3 IgG; H3 IgG1
For the molecule B1, the Kd with ALCAM/MEMD/CD166 [1] was determined as 4.4 µM.

B2: 585II41 scFv (scFv, not shown: small tags and cut ends)
scFv: QVQLVESGGGLVQPGGSLRLSCAASGFTFSSYAMGWVRQAPGKGLEWVSAISGSGGSTYYADSVKGRFTISRDNSKDTLYLQMNSLRAEDTAVYYCASRSLLDYWGQGTLVTVSSGGGGSGGGGSGGGGSNFMLTQDPAVSVALGQTVRITCQGDSLRSYYASWYQQKPGQAPLLVIYGKNNRPSGIPDRFSGSSSGNTASLTITGAQAEDEADYYCNSRDSSGNPVFGGGTKVTVL
notes: Soluble monomeric scFv from E. coli periplasm, purified by IMAC; Biotinylated for FACS analysis by the general methods; also called clone #10; H3 variant
Consider B2, for which, in the test with ALCAM/MEMD/CD166 [2], the binding result was “binds”.

B3: H3 scFv (585II41.1) (scFv)
scFv: B2 scFv with G35S
notes: also called clone #11; anti-ALCAM scFv
Turning to B3, the binding result in the test with ALCAM/MEMD/CD166 [3] is “binds”.

The record behind these values is patent US20100233165A1 (published 2010).
